The assay deals with T1, soluble human GPC3 (human, UniProt P51654 25-563, limits assumed).
T1 construct: soluble human GPC3 as analyte; also called glypican 3
Nature of the assay: SPR (Biacore), soluble human GPC3. For orientation: In SPR one partner is held on a chip, and binding of the other changes the refractive index at the surface.

T1 sequence (P51654 other isoform, or with tags, fused parts or gaps limits assumed, form in doubt): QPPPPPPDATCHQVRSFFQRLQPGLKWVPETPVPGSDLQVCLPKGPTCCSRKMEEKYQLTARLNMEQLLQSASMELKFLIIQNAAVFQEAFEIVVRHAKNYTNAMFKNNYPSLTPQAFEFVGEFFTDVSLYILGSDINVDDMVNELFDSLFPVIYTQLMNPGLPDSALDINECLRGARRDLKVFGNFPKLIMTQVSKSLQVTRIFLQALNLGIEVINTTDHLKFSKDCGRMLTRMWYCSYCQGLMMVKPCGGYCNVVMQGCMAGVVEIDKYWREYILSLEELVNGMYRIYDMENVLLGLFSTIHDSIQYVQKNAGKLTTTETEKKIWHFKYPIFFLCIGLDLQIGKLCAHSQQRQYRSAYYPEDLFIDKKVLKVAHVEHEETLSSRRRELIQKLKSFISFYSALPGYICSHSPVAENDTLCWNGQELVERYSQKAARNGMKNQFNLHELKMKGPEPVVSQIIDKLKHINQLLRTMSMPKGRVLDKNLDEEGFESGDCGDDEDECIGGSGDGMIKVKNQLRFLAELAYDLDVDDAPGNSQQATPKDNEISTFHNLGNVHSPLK

B1: H0610-G1dh/none-Hi-Kn010G3/L0012-k0 (antibody, human IgG1, kappa)
heavy: not shown
chain: EPKSSDKTHTCPPCPAPELLGGPSVFLFPPKPKDTLMISRTPEVTCVVVDVSHEDPEVKFNWYVDGVEVHNAKTKPREEQYNSTYRVVSVLTVLHQDWLNGKEYKCKVSNKALPAPIEKTISKAKGQPREPQVCTLPPSRDELTKNQVSLWCLVKGFYPSDIAVEWESNGQPENNYKTTPPVLDSDGSFFLYSKLTVDKSRWQQGNVFSCSVMHEALHNRYTQKSLSLSP
light: DIVMTQSPLSLPVTPGEPASISCRSSQSFVHSNRNTYLHWYQQKPGQAPRLLIYKVSNRFSGVPDRFSGSGSGTDFTLKISRVEAEDVGVYYCGQGTQVPYTFGQGTKLEIKRTVAAPSVFIFPPSDEQLKSGTASVVCLLNNFYPREAKVQWKVDNALQSGNSQESVTEQDSKDSTYSLSSTLTLSKADYEKHKVYACEVTHQGLSSPVTKSFNRGEC
notes: single-arm (one Fab)
On to B1, for which the dissociation constant Kd (commonly the concentration at which binding is half-saturated) came to 1.55 nM.

B2: H0610-G1dh/none-Hi-Kn010G3/L0014-k0 (antibody, human IgG1, kappa)
heavy: not shown
chain: EPKSSDKTHTCPPCPAPELLGGPSVFLFPPKPKDTLMISRTPEVTCVVVDVSHEDPEVKFNWYVDGVEVHNAKTKPREEQYNSTYRVVSVLTVLHQDWLNGKEYKCKVSNKALPAPIEKTISKAKGQPREPQVCTLPPSRDELTKNQVSLWCLVKGFYPSDIAVEWESNGQPENNYKTTPPVLDSDGSFFLYSKLTVDKSRWQQGNVFSCSVMHEALHNRYTQKSLSLSP
light: DIVMTQSPLSLPVTPGEPASISCRSSQSMVHSNRNTYLHWYQQKPGQAPRLLIYKVSNRFSGVPDRFSGSGSGTDFTLKISRVEAEDVGVYYCGQGTQVPYTFGQGTKLEIKRTVAAPSVFIFPPSDEQLKSGTASVVCLLNNFYPREAKVQWKVDNALQSGNSQESVTEQDSKDSTYSLSSTLTLSKADYEKHKVYACEVTHQGLSSPVTKSFNRGEC
notes: single-arm (one Fab)
In the case of B2, the equilibrium dissociation constant (Kd) turned out to be 1.82 nM.

B3: H0610-G1dh/none-Hi-Kn010G3/L0015-k0 (antibody, human IgG1, kappa)
heavy: not shown
chain: EPKSSDKTHTCPPCPAPELLGGPSVFLFPPKPKDTLMISRTPEVTCVVVDVSHEDPEVKFNWYVDGVEVHNAKTKPREEQYNSTYRVVSVLTVLHQDWLNGKEYKCKVSNKALPAPIEKTISKAKGQPREPQVCTLPPSRDELTKNQVSLWCLVKGFYPSDIAVEWESNGQPENNYKTTPPVLDSDGSFFLYSKLTVDKSRWQQGNVFSCSVMHEALHNRYTQKSLSLSP
light: DIVMTQSPLSLPVTPGEPASISCRSSQSPVHSNRNTYLHWYQQKPGQAPRLLIYKVSNRFSGVPDRFSGSGSGTDFTLKISRVEAEDVGVYYCGQGTQVPYTFGQGTKLEIKRTVAAPSVFIFPPSDEQLKSGTASVVCLLNNFYPREAKVQWKVDNALQSGNSQESVTEQDSKDSTYSLSSTLTLSKADYEKHKVYACEVTHQGLSSPVTKSFNRGEC
notes: single-arm (one Fab)
As to B3, the Kd amounted to 1.31 nM.

B4: H0610-G1dh/none-Hi-Kn010G3/L0013-k0 (antibody, human IgG1, kappa)
heavy: not shown
chain: EPKSSDKTHTCPPCPAPELLGGPSVFLFPPKPKDTLMISRTPEVTCVVVDVSHEDPEVKFNWYVDGVEVHNAKTKPREEQYNSTYRVVSVLTVLHQDWLNGKEYKCKVSNKALPAPIEKTISKAKGQPREPQVCTLPPSRDELTKNQVSLWCLVKGFYPSDIAVEWESNGQPENNYKTTPPVLDSDGSFFLYSKLTVDKSRWQQGNVFSCSVMHEALHNRYTQKSLSLSP
light: DIVMTQSPLSLPVTPGEPASISCRSSQSIVHSNRNTYLHWYQQKPGQAPRLLIYKVSNRFSGVPDRFSGSGSGTDFTLKISRVEAEDVGVYYCGQGTQVPYTFGQGTKLEIKRTVAAPSVFIFPPSDEQLKSGTASVVCLLNNFYPREAKVQWKVDNALQSGNSQESVTEQDSKDSTYSLSSTLTLSKADYEKHKVYACEVTHQGLSSPVTKSFNRGEC
notes: single-arm (one Fab)
As for B4, the Kd is 3.35 nM.

B5: H0610-G1dh/none-Hi-Kn010G3/L0016-k0 (antibody, human IgG1, kappa)
heavy: not shown
chain: EPKSSDKTHTCPPCPAPELLGGPSVFLFPPKPKDTLMISRTPEVTCVVVDVSHEDPEVKFNWYVDGVEVHNAKTKPREEQYNSTYRVVSVLTVLHQDWLNGKEYKCKVSNKALPAPIEKTISKAKGQPREPQVCTLPPSRDELTKNQVSLWCLVKGFYPSDIAVEWESNGQPENNYKTTPPVLDSDGSFFLYSKLTVDKSRWQQGNVFSCSVMHEALHNRYTQKSLSLSP
light: DIVMTQSPLSLPVTPGEPASISCRSSQSVVHSNRNTYLHWYQQKPGQAPRLLIYKVSNRFSGVPDRFSGSGSGTDFTLKISRVEAEDVGVYYCGQGTQVPYTFGQGTKLEIKRTVAAPSVFIFPPSDEQLKSGTASVVCLLNNFYPREAKVQWKVDNALQSGNSQESVTEQDSKDSTYSLSSTLTLSKADYEKHKVYACEVTHQGLSSPVTKSFNRGEC
notes: single-arm (one Fab)
Take B5: the affinity, expressed as Kd, was 4.44 nM.

For the origin of these results see patent US20210388110A1 (published 2021).
